These results are taken from PMC6829457, “Light-Regulation of Tryptophan Synthase by Combining Protein Design and Enzymology” (International Journal of Molecular Sciences, 2019).

In this assay the target is T1, wild-type TrpB, beta subunit of tryptophan synthase from Salmonella typhimurium (Salmonella typhimurium, UniProt P0A2K1 1-397).
T1 construct: TrpB (tryptophan synthase beta chain), Salmonella typhimurium; it carries pyridoxal phosphate as internal aldimine on bK87
T1 sequence: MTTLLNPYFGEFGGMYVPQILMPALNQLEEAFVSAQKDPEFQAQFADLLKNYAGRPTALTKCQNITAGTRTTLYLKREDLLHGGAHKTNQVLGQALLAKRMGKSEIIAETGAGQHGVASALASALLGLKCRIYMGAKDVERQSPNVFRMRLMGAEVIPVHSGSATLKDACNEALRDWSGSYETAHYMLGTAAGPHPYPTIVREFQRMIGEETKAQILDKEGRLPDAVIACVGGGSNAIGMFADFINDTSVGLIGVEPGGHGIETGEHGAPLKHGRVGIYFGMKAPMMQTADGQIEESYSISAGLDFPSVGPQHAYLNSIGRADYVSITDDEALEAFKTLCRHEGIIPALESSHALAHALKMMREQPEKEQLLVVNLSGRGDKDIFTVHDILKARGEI
In words: SEC. The following applies: both partners purified.

B1: wild-type TrpA, alpha subunit of tryptophan synthase from Salmonella typhimurium (enzyme, UniProt P00929 1-268, looked up)
chain: MERYENLFAQLNDRREGAFVPFVTLGDPGIEQSLKIIDTLIDAGADALELGVPFSDPLADGPTIQNANLRAFAAGVTPAQCFEMLALIREKHPTIPIGLLMYANLVFNNGIDAFYARCEQVGVDSVLVADVPVEESAPFRQAALRHNIAPIFICPPNADDDLLRQVASYGRGYTYLLSRSGVTGAENRGALPLHHLIEKLKEYHAAPALQGFGISSPEQVSAAVRAGAAGAISGSAIVKIIEKNLASPKQMLAELRSFVSAMKAASRA
notes: TrpA (tryptophan synthase alpha chain), Salmonella typhimurium
Take B1: the binding result is “binds”.
